# Experimental data from the RNAGym collection of RNA variant scans (doi:10.7554/elife.80360).
# B1: Twister Ribozyme (parent)
# chain: AACACUGCCAAUGCCGGUCCCAAGCCCGGAUAAAAGUGGAGGGGGCGG
# Variants of: B1
# Experiment: self-cleavage, relative activity (ratio to wild type); higher = more cleavage; co-transcriptional
row,Variant,self-cleavage
1,U18A A30G,0.606
2,U18A A30U,0.586
3,U18A A32C,0.53
4,U18A A32G,0.407
5,U18A A32U,0.632
6,U18A A33C,0.247
7,U18A A34G,0.171
8,U18A A34U,0.0942
9,U18A A35C,0.445
10,U18A A35G,0.123
11,U18A A35U,0.624
12,U18A A40G,0.0784
13,U18A C19A,0.0671
14,U18A C20A,0.0667
15,U18A C21A,0.084
16,U18A C21G,0.395
17,U18A C25U,0.0861
18,U18A C26G,0.124
19,U18A C27A,0.114
20,U18A C27G,0.0805
21,U18A C46A,0.252
22,U18A C46G,0.475
23,U18A C46U,0.617
24,U18A G28A,0.2

row,Variant,self-cleavage
1,U18A G28C,0.185
2,U18A G28U,0.314
3,U18A G29C,0.0874
4,U18A G29U,0.389
5,U18A G38A,0.229
6,U18A G38C,0.448
7,U18A G39C,0.102
8,U18A G39U,0.144
9,U18A G41A,0.101
10,U18A G42U,0.161
11,U18A G43A,0.147
12,U18A G44A,0.631
13,U18A G44C,0.448
14,U18A G45U,0.272
15,U18A G47A,0.201
16,U18A G47C,0.164
17,U18A G48C,0.395
18,U18A G48U,0.419
19,U18A U31C,0.568
20,U18A U31G,0.644
21,U18A U37C,0.0568
22,U18C A22G,0.0724
23,U18C A23C,0.506
24,U18C A23G,0.157

row,Variant,self-cleavage
1,U18C A23U,0.242
2,U18C A30C,0.0938
3,U18C A30G,0.713
4,U18C A32C,0.486
5,U18C A32G,0.664
6,U18C A33G,0.503
7,U18C A33U,0.542
8,U18C A35U,0.665
9,U18C C19A,0.0644
10,U18C C20A,0.0953
11,U18C C20G,0.102
12,U18C C21G,0.0463
13,U18C C25A,0.105
14,U18C C26G,0.0519
15,U18C C26U,0.0772
16,U18C C27G,0.0754
17,U18C C46A,0.463
18,U18C C46G,0.477
19,U18C C46U,0.599
20,U18C G24C,0.0613
21,U18C G24U,0.079
22,U18C G28U,0.156
23,U18C G29A,0.275
24,U18C G36C,0.1

row,Variant,self-cleavage
1,U18C G38A,0.371
2,U18C G38C,0.523
3,U18C G39U,0.104
4,U18C G41A,0.137
5,U18C G42C,0.114
6,U18C G43A,0.188
7,U18C G43C,0.121
8,U18C G43U,0.111
9,U18C G44A,0.714
10,U18C G45A,0.48
11,U18C G45C,0.132
12,U18C G48A,0.368
13,U18C G48C,0.562
14,U18C G48U,0.496
15,U18C U31A,0.54
16,U18C U31G,0.477
17,U18C U37A,0.197
18,U18G A22G,0.0592
19,U18G A22U,0.0775
20,U18G A23U,0.0485
21,U18G A30U,0.0738
22,U18G A32G,0.0643
23,U18G A33U,0.0323
24,U18G A34C,0.0636

row,Variant,self-cleavage
1,U18G A34U,0.0388
2,U18G A35C,0.0813
3,U18G A40C,0.0607
4,U18G C19U,0.105
5,U18G C20A,0.057
6,U18G C20G,0.069
7,U18G C21A,0.133
8,U18G C21G,0.0716
9,U18G C25A,0.138
10,U18G C25G,0.0608
11,U18G C25U,0.085
12,U18G C26G,0.0643
13,U18G C46A,0.0573
14,U18G G24A,0.0714
15,U18G G24C,0.117
16,U18G G28U,0.089
17,U18G G29C,0.0613
18,U18G G36A,0.0894
19,U18G G36C,0.0571
20,U18G G38C,0.102
21,U18G G38U,0.0721
22,U18G G39C,0.0419
23,U18G G41A,0.0588
24,U18G G41U,0.0362

row,Variant,self-cleavage
1,U18G G43A,0.0708
2,U18G G43C,0.116
3,U18G G44C,0.0756
4,U18G G44U,0.0806
5,U18G G47A,0.0493
6,U18G G47U,0.0478
7,U18G G48U,0.117
8,U18G U31A,0.0937
9,U18G U31C,0.106
10,U18G U31G,0.102
11,U18G U37C,0.0884
12,C19A A22C,0.127
13,C19A A22U,0.11
14,C19A A23C,0.126
15,C19A A30G,0.444
16,C19A A30U,0.349
17,C19A A32C,0.201
18,C19A A32U,0.189
19,C19A A33C,0.0946
20,C19A A33U,0.148
21,C19A A34U,0.116
22,C19A A35G,0.095
23,C19A A40C,0.148
24,C19A A40U,0.16

row,Variant,self-cleavage
1,C19A C21U,0.0833
2,C19A C25A,0.0869
3,C19A C25G,0.0863
4,C19A C26U,0.0877
5,C19A C27A,0.0712
6,C19A C27G,0.073
7,C19A C46A,0.197
8,C19A G24A,0.0849
9,C19A G24U,0.0798
10,C19A G28U,0.179
11,C19A G29A,0.27
12,C19A G36A,0.102
13,C19A G38A,0.132
14,C19A G38U,0.12
15,C19A G39A,0.136
16,C19A G39C,0.126
17,C19A G41C,0.114
18,C19A G41U,0.109
19,C19A G42A,0.135
20,C19A G42C,0.197
21,C19A G42U,0.103
22,C19A G43C,0.317
23,C19A G44A,0.685
